Results as given in patent US20130309670.

Tests used:
[1] = tested on: Il2rg ZFN-2 (zinc finger-FokI nuclease) (synthetic construct); assay: cell_activity; settings: pair ZFN-1+ZFN-2, clones with ZFN cleavage (6/192) in mouse F1H4 ES cells without LTVEC; 6.9% among non-targeted clones with LTVEC; 6 bp spacer
[2] = tested on: Il2rg ZFN-1 (zinc finger-FokI nuclease) (synthetic construct); assay: cell_activity; settings: pair ZFN-1+ZFN-2, clones with ZFN cleavage (6/192) in mouse F1H4 ES cells without LTVEC; 6.9% among non-targeted clones with LTVEC; 6 bp spacer

| Sequence | activity [1] | activity [2] |
| --- | --- | --- |
| GTCTTCATTCGCACT (double strand) [Il2rg exon 1 ZFN-2 half-site (antisense strand)] | 3.1% |  |
| AGCTCCAAGGTCCTC (double strand) [Il2rg exon 1 ZFN-1 half-site (sense strand)] |  | 3.1% |
